Experiment [1] has as its target human LAG-3 on cells (HEK293-hLAG-3 stable cell line) (human) (UniProt P18627). In words: FACS, HEK293-hLAG-3, antibody 40 nM.
The target is the same in experiment [2]. In words: FACS, HEK293-hLAG-3, antibody 0.000 nM.
Experiment [3] shares this target. Nature of the experiment: FACS, HEK293-hLAG-3, antibody 8.000 nM.
For experiment [4], the target named is monkey LAG-3 on cells (HEK293-cLAG-3 stable cell line) (monkey). Nature of the experiment: FACS, HEK293-cLAG-3, antibody 0.013 nM.
Experiment [5] shares this target. In words: FACS, HEK293-cLAG-3, antibody 0.320 nM.
Experiment [6] has the same target. In words: FACS, HEK293-cLAG-3, antibody 8.000 nM.
The target in experiment [7] is LAG-3-hFc protein (human LAG-3 extracellular region with hFc tag) (human) (UniProt P18627). In words: FACS, inhibition of LAG-3-hFc binding to MHC II on Raji cells, antibody 0.000 nM.
Experiment [8] has the same target. Nature of the experiment: FACS, inhibition of LAG-3-hFc binding to MHC II on Raji cells, antibody 0.274 nM.
For experiment [9] the target is unchanged. In words: FACS, inhibition of LAG-3-hFc binding to MHC II on Raji cells, antibody 200.000 nM.
Experiment [10] shares this target. In words: ELISA, inhibition of LSECtin-His binding to coated LAG-3-hFc, antibody 0.013 nM, replicate 2.
The target is the same in experiment [11]. In words: ELISA, inhibition of LSECtin-His binding to coated LAG-3-hFc, antibody 0.064 nM, replicate 1.
Experiment [12] has the same target. In words: ELISA, inhibition of LSECtin-His binding to coated LAG-3-hFc, antibody 0.320 nM, replicate 2.
For experiment [13] the target is unchanged. Nature of the experiment: ELISA, inhibition of LSECtin-His binding to coated LAG-3-hFc, antibody 1.600 nM, replicate 2.
Experiment [14] shares this target. In words: ELISA, inhibition of LSECtin-His binding to coated LAG-3-hFc, antibody 8.000 nM, replicate 1.
For experiment [15] the target is unchanged. In words: ELISA, inhibition of LSECtin-His binding to coated LAG-3-hFc, antibody 40.000 nM, replicate 1.
Experiment [16] shares this target. Nature of the experiment: ELISA, inhibition of LSECtin-His binding to coated LAG-3-hFc, antibody 200.000 nM, replicate 1.
The target is the same in experiment [17]. In words: ELISA, inhibition of LSECtin-His binding to coated LAG-3-hFc, antibody 200.000 nM, replicate 2.
In experiment [18] the target is T1, human LAG-3 on cells (HEK293-hLAG-3 stable cell line) (human, UniProt P18627 23-525).
T1 sequence: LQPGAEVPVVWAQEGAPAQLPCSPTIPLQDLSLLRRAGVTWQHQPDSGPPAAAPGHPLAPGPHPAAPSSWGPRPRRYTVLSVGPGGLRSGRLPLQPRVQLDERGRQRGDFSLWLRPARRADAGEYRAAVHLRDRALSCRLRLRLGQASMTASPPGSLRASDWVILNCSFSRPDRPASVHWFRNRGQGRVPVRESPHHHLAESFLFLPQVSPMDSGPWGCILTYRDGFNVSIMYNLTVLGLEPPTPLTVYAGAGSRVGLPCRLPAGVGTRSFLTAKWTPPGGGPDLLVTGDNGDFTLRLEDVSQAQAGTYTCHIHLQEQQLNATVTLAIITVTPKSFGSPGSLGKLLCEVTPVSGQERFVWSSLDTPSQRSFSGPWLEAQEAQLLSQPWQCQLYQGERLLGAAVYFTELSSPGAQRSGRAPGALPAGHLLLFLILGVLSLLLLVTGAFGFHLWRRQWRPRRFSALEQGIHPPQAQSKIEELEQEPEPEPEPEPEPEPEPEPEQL
In words: FACS, HEK293-hLAG-3, antibody 40 nM. The source says: (§1) A. The binding of antibodies to LAG-3 expressing cells was detected by Flow cytometry (FACS), wherein the method was according to that of Example 5.

Experiment [19] has as its target T1, human LAG-3 on cells (HEK293-hLAG-3 …). In words: FACS, HEK293-hLAG-3, antibody 1.6 nM.
For experiment [20] the target is unchanged. Nature of the experiment: FACS, HEK293-hLAG-3, antibody 0.013 nM.
Source text: as §1

Experiment [21] shares this target. In words: FACS, HEK293-hLAG-3, antibody 0 nM.
For experiment [22] the target is unchanged. Nature of the experiment: FACS, HEK293-hLAG-3, antibody 0.013 nM. The source holds these as a separate data set.
Experiment [23] shares this target. Nature of the experiment: FACS, HEK293-hLAG-3, antibody 0.064 nM.

Sequence of monkey LAG-3 on cells (HEK293-cLAG-3 stable cell line) (monkey) (P18627 other isoform, or with tags, fused parts or gaps limits assumed): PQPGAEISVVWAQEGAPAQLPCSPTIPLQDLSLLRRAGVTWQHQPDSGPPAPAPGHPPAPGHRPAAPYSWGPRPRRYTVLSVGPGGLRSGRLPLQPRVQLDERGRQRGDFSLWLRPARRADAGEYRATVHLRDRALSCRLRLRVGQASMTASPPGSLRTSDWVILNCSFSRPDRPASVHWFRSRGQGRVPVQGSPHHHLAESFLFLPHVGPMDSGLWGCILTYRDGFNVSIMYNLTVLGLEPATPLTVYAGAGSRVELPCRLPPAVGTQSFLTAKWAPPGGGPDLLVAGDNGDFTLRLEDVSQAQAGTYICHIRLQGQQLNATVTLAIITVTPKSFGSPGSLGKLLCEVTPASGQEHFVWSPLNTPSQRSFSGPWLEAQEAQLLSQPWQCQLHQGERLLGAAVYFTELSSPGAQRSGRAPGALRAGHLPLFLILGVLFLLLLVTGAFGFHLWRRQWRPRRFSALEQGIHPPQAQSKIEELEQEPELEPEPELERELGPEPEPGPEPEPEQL

As to hIgG control (antibody), the Mean fluorescence intensity in experiment [1] was 4; in experiment [2] it was 3; in [3], 3; in experiment [4], 2.87; in experiment [5] it was 3.13; in experiment [6] it was 3.16. For the same molecule, the Inhibition rate (%) in experiment [7] was 17.7%; in experiment [8], 8.1%; in [9], 12.3%; in experiment [10], -15.7%; in experiment [11], -26.4%; in [12], -10.1%. The Inhibition rate (%) in experiment [13] was -7.4%; in [14], -4.3%; in [15] it was 0.7%; in experiment [16], 2.6%; in experiment [17] it was -2.2%.

B1: 405B8H3 mouse-human chimeric antibody (antibody, V domains shown)
VH: QVQLQQSGAELVRPGASVTLSCKASGYTFTDYEMHWVKQTPVHGLEWIGATDPETGNSAYNQKFKGKAIMTADKSSSTAYMELRSLTSEDSAVYYCISTGWNDWGQGTSLTVSS
VL: DIKMTQSPSSMYASLGERVTITCKASQDINSYLSWFQQKPGKSPKTLIYRADRLLDGVPSRFSGSGSGQDYSLTISSLEYGDMGIYYCLQYDEFPYTFGGGTKLEIK
notes: also called mAb103-405B8H3
For the molecule B1, the Mean fluorescence intensity came out at 266 in [18], 139 in experiment [19] and 9 in [20].

B2: 556F6B8 mouse-human chimeric antibody (antibody, V domains shown)
VH: RVQLKQSGPGLVQPSQSLSITCTVSGFSLIKYGVHWVRQSPGEGLEWLGVIWRGGITDYNAAFMSRLSITKDNSKSQVFFKMNSLQADDTAIYYCAKWDGPLAMDYWGQGTSVTVSS
VL: DIVMTQSHKFLSTSVGDRVSITCKASQDVGTTVAWYQQKPGQSPKLLIYWASTRHTGVPDRFTGSGSGTDFTLTISNVQSEDLADYFCQQYSSYPYTFGGGTKLEIK
notes: also called mAb123-556F6B8; 556F8B8
B2: the Mean fluorescence intensity in experiment [21] is 4; in [22] it was 6; in experiment [23], 12.
